1 substance from article PMC3379008 can be followed below.

Bounds are passed on as bounds.

This assay concerns the target B/Florida/04/06 full-length HA protein produced from baculovirus in Spodoptera frugiperda insect cells (influenza B virus B/Florida/04/06). Kind of assay: SEC.

Regarding “B/Florida/04/06 full-length HA protein produced from baculovirus in Spodoptera frugiperda insect cells (natural protein)”, the stoichiometry N (as a rule, a count of units in the complex or per binding partner) is over 9 HA monomers.
